Assay [1] can be described thus: Liver and small intestine triglyceride content after olive oil gavage. It counts as in vivo, mouse. As to conditions: Mfge8−/− mice; 8 hours after olive oil gavage. As to the method:
6-8 week-old mice were fasted for 4 hours and then gavaged with 15 μL olive oil per gram body weight. Mice had access to water but not food for the remainder of the experiment. In the experiments in FIGS. 3C and 3F, 50 μg/kg body weight of recombinant protein was mixed into olive oil and administered immediately to mice by gavage. In blocking antibody experiments, integrins αv (clone RMV-7) and 05 (clone ALULA) were administered by gavaging mice with 100 μL water containing 0.5 μg antibody per gram body weight 30 minutes before olive oil gavage. Triglyceride content of serum was assayed using a commercially available kit (Sigma-Aldrich) and fatty acid concentrations were quantified by Wako (Rabot, S. et al., FASEB J 24, 4948-4959 (2010)).
After experiments described above, samples from the left lobe of the liver and the proximal small intestine were isolated and rapidly frozen in liquid nitrogen for triglyceride content assays. Control mice were starved for 8 hours before their organs were harvested as above. Triglyceride content of the intestine (Uchida, A. et al., Front Physiol 3, 26) and liver (Kim, K. Y. et al., J Clin Invest 121, 3701-3712 (2011)) and fecal samples Kim, K. Y. et al., J Clin Invest 121, 3701-3712 (2011)) were quantified as described previously.

The test system of another assay is Rictor. Briefly: Western blot, Rictor phosphorylation in HepG2 cells. It counts as cell-based, human. As to the method:
Following tissue preparation and SDS-PAGE, membranes were incubated with a polyclonal antibody against Akt (Cell Signaling Technology), or Rictor (Cell Signaling); Anti-PGC1 alpha antibody (abcam); a monoclonal antibody against Phospho-Akt Ser473 (Cell Signaling), Phospho-Rictor Thr1135 (Cell Signaling), GAPDH (Cell Signaling), or Mfge8 (R&D Systems). For evaluation of total AKT and total Rictor, membranes that been blotted for phospho-AKT and phospho-Rictor were stripped and reprobed. Plasma membrane and post-plasma membrane fractions were isolated as previously described (Nishiumi, S. & Ashida, H., Biosci Biotechnol Biochem 71, 2343-2346 (2007)).

The nature of assay [2]: Blood glucose after IP insulin injection. It counts as in vivo, mouse. Conditions: mice, rMfge8 co-administered with insulin, antibodies as pretreatment 15 min before insulin. As to the method:
Mice were fasted for 4 hours after which they were injected with 1.5 U/kg of insulin IP. Blood was collected from the tail vein immediately before injection and then again after 15, 30, 60, and 90 minutes for evaluation of blood glucose.
In experiments using RGE or Mfge8 construct: mice received 50 μg/kg body weight of recombinant protein. In experiments using function-blocking antibodies: 6-8 week-old mice were fasted for 4 hours and then each mouse received 0.5 μg antibody (integrins αv (clone RMV-7) and β5 (clone ALULA)) per gram body weight in total volume of 200 μl, 15 minutes later each mouse received an insulin injection (1.5 U/kg, intraperitoneal injection (IP)). Blood glucose levels were measured by sampling from the tail vein of mice from 15 minutes after insulin administered.

A further assay deals with AKT. Briefly: Western blot of antral tissue, AKT phosphorylation. Also on record: species or system mouse. As to conditions: antral tissue treated for 30 minutes. How it is done:
In FIG. 14A, the antral rings were treated for 15 min with PI3K inhibitor wortmannin (Wort.100 nm) followed by assessment of contractile force in response to MCh. N=3-4. ***P<0.0001. […] Western blot of antral tissue were treated for 30 minutes with or without rMfge8. […] Western blot of antrum were treated for 30 minutes with wortmannin (100 ng/ml) or Mfge8 and then with MCh for 15 minutes prior to quantifying active RhoA using a GST pull-down. […] PTEN activity assay measured the conversion of PIP3 to PIP2 in freshly isolated antrum with and without the rMfge8 or RGE construct (10 μg/ml) n=3-5. *P<0.05, **P<0.01, ***P<0.001.
On the technique in general: In western blotting, separated proteins are transferred to a membrane and probed.

One molecule from patent US10005838B2, “Milk fat globule epidermal growth factor 8 regulates fatty acid uptake” (REGENTS OF THE UNIVERSITY OF CALIFORNIA, priority 2013, dated 2018) can be followed below.

B1: rMfge8: recombinant Milk Fat Globule Epidermal Growth Factor 8, an integrin ligand, expressed in High 5 cells (protein)
chain: ASGDFCDSSLCLNGGTCLTGQDNDIYCLCPEGFTGLVCNETERGPCSPNPCYNDAKCLVTLDTQRGDIFTEYICQCPVGYSGIHCETETNYYNLDGEYMFTTAVPNTAVPTPAPTPDLSNNLASRCSTQLGMEGGAIADSQISASSVYMGFMGLQRWGPELARLYRTGIVNAWTASNYDSKPWIQVNLLRKMRVSGVMTQGASRAGRAEYLKTFKVAYSLDGRKFEFIQDESGGDKEFLGNLDNNSLKVNMFNPTLEAQYIKLYPVSCHRGCTLRFELLGCELHGCSEPLGLKNNTIPDSQMSASSSYKTWNLRAFGWYPHLGRLDNQGKINAWTAQSNSAKEWLQVDLGTQRQVTGIITQGARDFGHIQYVASYKVAHSDDGVQWTVYEEQGSSKVFQGNLDNNSHKKNIFEKPFMARYVRVLPVSWHNRITLRLELLGC
As to B1, the “liver triglyceride levels after gavage” value in assay [1] was “increased significantly”. For the same molecule, in the assay on Rictor, the “phosphorylation of Rictor” value was “induced”. Also, in assay [2], the “serum glucose levels after insulin injection as compared with insulin injection alone” value is given as “significantly higher”. The “AKT phosphorylation in antral tissue” value with AKT is on record as “reduces”.
